The record followed here is the RNAGym collection of RNA variant scans (doi:10.1073/pnas.2313332121).

To fix the notation:
B1: TPR 5TU (parent)
chain: GGAUCUUCUCGAUCUAACAAAAAAGACAAAUCUGCCACAAAGCUUGAGAGCAUCUUCGGAUGCAGAGGCGGCAGCCUUCGGUGGCGCGAUAGCGCCAACGUUCUCAACUAUGACACGCAAAACGCGUGCUCCGUUGAAUGGAGUUUAUCAUG

Fewer inactive variants are shown than the library holds. Where only a bound is given, the exact number is not on record here.

In this data set the parent is B1. As to the kind of experiment: polymerase ribozyme fitness, log enrichment relative to wild type (log ratio); higher = more active; in vitro selection for triplet polymerase activity. The method in brief:
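Frozen incubation at −7 °C formed the core of a single, triplicate in vitro selection round applied to PCR-built, transcribed mutant libraries of each subunit of a heterodimeric triplet polymerase ribozyme. Extended constructs were gel-excised, captured with streptavidin beads and amplified by RT-PCR, and input and output libraries were Illumina-sequenced with a filter of ≥10 input reads and ≥1 read per output. Fitness is the logarithm of genotype enrichment relative to wild-type enrichment, with inverse-variance-weighted replicate averaging, and the logarithm is base 2.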
Consider U53C C54U, for which the “polymerase ribozyme fitness (log ratio)” value was -1.25.
Consider G50A A106C, for which the “polymerase ribozyme fitness (log ratio)” value was -2.72.
For C72A C93A, the “polymerase ribozyme fitness (log ratio)” value was no more than -4.2.
Then C14A C43A C51U C54G C93A U145C A150C, with no more than -4.2; and U13G A47U G50A C51U U55A G81C A137U C149A, with no more than -4.2.
Consider C85U C105G A142U, for which the “polymerase ribozyme fitness (log ratio)” value is -2.01.
For G11A A30G A41C A91U C95G G140C, the “polymerase ribozyme fitness (log ratio)” value was no more than -4.2.
Then A49U A138U, with no more than -4.2; and A22G, with 0.56.
With G74C G80C G92U C103G A106U, the “polymerase ribozyme fitness (log ratio)” value is no more than -4.2.
Under A37U C57G U61A G71U A91G U139G stands no more than -4.2.
Then C43G C125A U146A U148A, with no more than -4.2; and A23U U44G C76A C79U U82A G86A G143A, with no more than -4.2; and A40G G83U G92A C99G A107U, with no more than -4.2.
Under C38U C76U U77G G92A C118A C129U stands no more than -4.2.
With G83C C95U G136A C149U, the “polymerase ribozyme fitness (log ratio)” value is -2.18.
Under C72G C96U stands -4.02; under C10U C96G, -3.82.
For G94U G141U, the “polymerase ribozyme fitness (log ratio)” value is -0.082.
With U55A C85A, the “polymerase ribozyme fitness (log ratio)” value is -2.26.
For U13C G62C C99A U148G, the “polymerase ribozyme fitness (log ratio)” value was no more than -4.2.
Under G11A A29G C38G A147C stands no more than -4.2.
As to A73G U144C, the “polymerase ribozyme fitness (log ratio)” value worked out at 0.137.
Under C85G A98U G124U A147C stands -2.53; under A23C U53A C57U C96G C103G, no more than -4.2.
Turning to U15G U135G, the “polymerase ribozyme fitness (log ratio)” value was -3.65.
Turning to A23G G34U G141C, the “polymerase ribozyme fitness (log ratio)” value is no more than -4.2.
Under A3C A37G A91C A138C G140U stands no more than -4.2; under C35U U53A U135A G143C, -4.16; under U7A G25U A39C A49U C54G C95U U111G, no more than -4.2.
Turning to C63G G92A U145G, the “polymerase ribozyme fitness (log ratio)” value was -2.07.
Then C96U A115G U148A, with -3.95.
With A12U G117C U134C, the “polymerase ribozyme fitness (log ratio)” value was -0.516.
With G83U C103U C116A G117A U148A, the “polymerase ribozyme fitness (log ratio)” value is no more than -4.2.
Then U9C C36A U45A A47C A49U A52G U55G G68U G80U G94U, with no more than -4.2; and G92A A121U, with -2.71; and A12U A16G A40C U55A G81A C118G C129A, with no more than -4.2.
Take A23C C54G A64G C125A U148C C149A A150U: the “polymerase ribozyme fitness (log ratio)” value is no more than -4.2.
Take G92C U127G: the “polymerase ribozyme fitness (log ratio)” value was -3.67.
On to G11U C38G G46A, for which the “polymerase ribozyme fitness (log ratio)” value was -2.87.
Then C5U A22U A98G A122U, with 0.571.
Then U7A C32U C35U U90C G141C G143C, with no more than -4.2; and A19U U55C C57A A66C C85G U109G, with no more than -4.2.
In the case of C85G U102A G133U A137U G141C, the “polymerase ribozyme fitness (log ratio)” value is -3.8.
In the case of C18U C32U G83U, the “polymerase ribozyme fitness (log ratio)” value was -3.14.
Then U33C A47G C93U C103A C132U A137C, with no more than -4.2; and U56G G94A U139G, with -1.18.
Under U13G C14U A60C G88U A122U U134A stands no more than -4.2; under G88A C96U, -3.43.
Consider A26U G141U U144G, for which the “polymerase ribozyme fitness (log ratio)” value is -3.78.
Then A30C A40C U56A A60G A66G A89U C93A C99U A106C G126U C131U U134A, with no more than -4.2; and C14A G59C C85A C99U G141U U146G, with no more than -4.2; and U9G U15A A30U U33G G42C U101A C105G A110U C118U A119G U139A A147C A150G, with no more than -4.2.
Under A49C A60G stands -3.61; under G70C C87A G140C, no more than -4.2.
Under G59C C79A C93U stands no more than -4.2; under G83C G143U, -2.8.
As to A26U U146G, the “polymerase ribozyme fitness (log ratio)” value was -1.92.
Consider C27A G62A C87G A91C, for which the “polymerase ribozyme fitness (log ratio)” value is no more than -4.2.
Then A73G G94A A97U A120U, with -1.74; and G94C U127A, with -3.75; and C8A A12C G42C C72U G86A, with no more than -4.2.
With A23U G74U A91U, the “polymerase ribozyme fitness (log ratio)” value is no more than -4.2.
Turning to C85G C99A, the “polymerase ribozyme fitness (log ratio)” value was -3.3.
In the case of C43G G50A C85U, the “polymerase ribozyme fitness (log ratio)” value was no more than -4.2.
Under A21U U135C stands -1.61; under A52C C87U A91U C116U G128U, no more than -4.2.
Consider U102G U111G, for which the “polymerase ribozyme fitness (log ratio)” value was no more than -4.2.
As for A12U C14A C114G A119G, the “polymerase ribozyme fitness (log ratio)” value was -3.37.
For the variant G59A G100A, the “polymerase ribozyme fitness (log ratio)” value was no more than -4.2.
Under A24U A28C C76A U82A C99U C118U G141C stands no more than -4.2; under C10A U45A C69U C72U, no more than -4.2.
